Data: paper PMC10853780

What was measured:
[1] = biological target: HA-tagged DAXX (Y124A) (human) (UniProt Q9UER7); assay: co-IP; anti-HA magnetic beads (Pierce HA-Tag Magnetic IP/Co-IP Kit) on SF188 cell extracts (500 μg protein), 4 h at 4°C, 50 μg/ml ethidium bromide throughout, final wash with 200 mM NaCl; immunoblot for DAXX and ATRX
[2] = biological target: HA-tagged DAXX (Y124A, R371W) (UniProt Q9UER7); assay: co-IP; as the DAXX-ATRX co-IP (anti-HA magnetic beads on SF188 cell extracts, ethidium bromide), proteins separated on a 16% acrylamide gel; immunoblot for DAXX, H3.3 and H4

percent reduction of the interaction against DAXX WT [1] [%]	Substance	percent decrease of the interaction, corrected for the reduced stability of the mutant [2]
> 95	alpha-thalassemia/mental retardation syndrome X-linked (ATRX), P46100 1-2492	
	H3.3-H4 heterodimer	its interaction with H3.3 and H4 was decreased by > 80%
